Measured values taken from patent US20260209321A1 (SINGAPORE HEALTH SERVICES PTE, published 2026).
Positions count from the first letter of the chain named.

B1: anti-TRPM4 chimeric antibody clone A1 (VH + VL) (antibody, V domains shown)
VH: QVQLQESGPGLVKPSQSLSLTCTVTGYSITSDYAWNWIRQFPGNKLQWMGYLSYSGVTSYNPSLKGRISITRDTSKNQFFLQLSSVTPEDTATYYCARKGTYYRYEGSYWYFDVWGAGTTVTVSS
VL: DIQMNQSPSSLSASLGDTITITCHANQNIDVWLSWYQQKPGNVPKLLIYKTSNLHTGVPSRFSGSGSGTDFTLTISSLQPEDIATYYCQQGQSYPLTFGGGTKLEIK
notes: also called VH + VL (A1)
B2: humanized anti-TRPM4 antibody clone A2 (VH1 + VL1) (antibody, human IgG1, kappa, V domains shown)
VH: QVQLQESGPGLVKPSQTLSLTCTVSGYSITSDYAWNWIRQHPGKGLEWIGYLSYSGVTSYNPSLKGRVTISVDTSKNQFSLKLSSVTAADTAVYYCARKGTYYRYEGSYWYFDVWGQGTTVTVSS
VL: DIQMTQSPSSLSASVGDRVTITCHANQNIDVWLSWYQQKPGKAPKLLIYKTSNLHTGVPSRFSGSGSGTDFTFTISSLQPEDIATYYCQQGQSYPLTFGGGTKLEIKR
notes: also called VH1 + VL1 (A2)
B3: humanized anti-TRPM4 antibody VH2 + VL4 (antibody, V domains shown)
VH: B2 VH with I49M, V72R
VL: B2 VL with K42N, F73L
notes: Full-length IgG
B4: humanized anti-TRPM4 antibody VH3 + VL3 (antibody, V domains shown)
VH: B2 VH with E47Q, I49M, V68I, V72R
VL: B2 VL with K42N
notes: Full-length IgG
B5: humanized anti-TRPM4 antibody VH4 + VL4 (antibody, V domains shown)
VH: B2 VH with E47Q, I49M, V68I, V72R, S80F
VL: B2 VL with K42N, F73L
notes: Full-length IgG
B6: humanized anti-TRPM4 antibody VH4 + VL3 (antibody, V domains shown)
VH: B2 VH with E47Q, I49M, V68I, V72R, S80F
VL: B2 VL with K42N
notes: Full-length IgG
B7: humanized anti-TRPM4 antibody VH4 + VL2 (antibody, V domains shown)
VH: B2 VH with E47Q, I49M, V68I, V72R, S80F
VL: B2 VL with F73L
notes: Full-length IgG
B8: humanized anti-TRPM4 antibody VH3 + VL4 (antibody, V domains shown)
VH: B2 VH with E47Q, I49M, V68I, V72R
VL: B2 VL with K42N, F73L
notes: Full-length IgG
B9: humanized anti-TRPM4 antibody VH3 + VL1 (antibody, V domains shown)
VH: B2 VH with E47Q, I49M, V68I, V72R
VL: B2 VL
notes: Full-length IgG
B10: humanized anti-TRPM4 antibody VH3 + VL2 (antibody, V domains shown)
VH: B2 VH with E47Q, I49M, V68I, V72R
VL: B2 VL with F73L
notes: Full-length IgG
B11: humanized anti-TRPM4 antibody VH4 + VL1 (antibody, V domains shown)
VH: B2 VH with E47Q, I49M, V68I, V72R, S80F
VL: B2 VL
notes: Full-length IgG
B12: humanized anti-TRPM4 antibody VH2 + VL3 (antibody, V domains shown)
VH: B2 VH with I49M, V72R
VL: B2 VL with K42N
notes: Full-length IgG
B13: humanized anti-TRPM4 antibody clone A4 (VH1 + VL3) (antibody, V domains shown)
VH: B2 VH
VL: B2 VL with K42N
notes: Full-length IgG, IgG1 heavy chain; also called VH1 + VL3 (A4)
B14: humanized anti-TRPM4 antibody clone A6 (VH2 + VL1) (antibody, V domains shown)
VH: B2 VH with I49M, V72R
VL: B2 VL
notes: Full-length IgG, IgG1 heavy chain; also called VH2 + VL1 (A6)
B15: humanized anti-TRPM4 antibody clone A5 (VH1 + VL4) (antibody, V domains shown)
VH: B2 VH
VL: B2 VL with K42N, F73L
notes: Full-length IgG, IgG1 heavy chain; also called VH1 + VL4 (A5)
B16: humanized anti-TRPM4 antibody clone A3 (VH1 + VL2) (antibody, V domains shown)
VH: B2 VH
VL: B2 VL with F73L
notes: Full-length IgG, IgG1 heavy chain; also called VH1 + VL2 (A3)
B17: humanized anti-TRPM4 antibody clone A7 (VH2 + VL2) (antibody, V domains shown)
VH: B2 VH with I49M, V72R
VL: B2 VL with F73L
notes: Full-length IgG, IgG1 heavy chain; also called VH2 + VL2 (A7)

Legend:
Peptide-biotin [1] = molecular target: T1, Peptide-biotin; test: SPR Biacore 8K affinity ranking; antibody Fc-captured, Peptide-biotin analyte, 1:1 fit
T1 construct: also called antigen
Experimental: For affinity ranking, antibodies were captured on the sensor chip through Fc capture method. Peptide-biotin was used as the analyte. The surface was regenerated before the injection of another antibody. The process was repeated until all antibodies are analyzed. The off-rates of antibodies were obtained from fitting the experimental data locally to 1:1 interaction model using the Biacore 8K evaluation software. The antibodies were ranked by their dissociation rate constants (off-rates, kd). Based on the ranking result, the top 3 clones were selected.
Humanized antibodies were generated by replacing the framework regions (FRs) from mouse M4M antibody with counterparts from human, while maintaining the antibody's complementarity-determining regions (CDRs) binding regions. The antibody binding affinity of the chimeric and humanized antibodies was assessed by surface plasmon resonance (SPR) as shown in Table 1. Antibody clone A1 is the chimeric antibody and antibody clones A2-7 are humanized antibodies. Based on the results obtained from SPR, humanized clone A2 has the strongest SPR signal. For affinity ranking, antibodies were captured on the sensor chip through Fc capture method. Peptide-biotin was used as the analyte. The surface was regenerated before the injection of another antibody. The process was repeated until all antibodies are analyzed. The off-rates of antibodies were obtained from fitting the experimental data locally to 1:1 interaction model using the Biacore 8K evaluation software. The antibodies were ranked by their dissociation rate constants (off-rates, kd). Based on the ranking result, the top humanized clones were selected. […] Bolded and underlined amino acids correspond to the back mutation sites in the framework regions.

[2] = molecular target: T2, human TRPM4 expressed in transfected HEK 293 cells (human, UniProt Q8TD43 1-1214); test: immunofluorescent staining of HEK 293 cells transfected with human TRPM4; colocalization with WGA (surface TRPM4)
T2 construct: whole, on cells; also called transient receptor potential melastatin 4

Peptide-biotin [3] = molecular target: T1, Peptide-biotin; test: SPR Biacore 8K, purified IgG Fc-captured, Peptide-biotin analyte, 1:1 fit
Experimental: The affinity of purified antibody binding to Peptide-biotin was individually determined using a Surface Plasmon Resonance (SPR) biosensor, Biacore 8K (GE Healthcare). Antibodies were captured on the sensor chip through Fc capture method. Peptide-biotin was used as the analyte. The data of dissociation (kd) and association (ka) rate constants were obtained using Biacore 8K evaluation software. The equilibrium dissociation constants (KD) were calculated from the ratio of kd over ka.

[4] = molecular target: T2, human TRPM4 expressed in transfected …; test: cell-based or functional assay

T2 sequence (Q8TD43 whole entry): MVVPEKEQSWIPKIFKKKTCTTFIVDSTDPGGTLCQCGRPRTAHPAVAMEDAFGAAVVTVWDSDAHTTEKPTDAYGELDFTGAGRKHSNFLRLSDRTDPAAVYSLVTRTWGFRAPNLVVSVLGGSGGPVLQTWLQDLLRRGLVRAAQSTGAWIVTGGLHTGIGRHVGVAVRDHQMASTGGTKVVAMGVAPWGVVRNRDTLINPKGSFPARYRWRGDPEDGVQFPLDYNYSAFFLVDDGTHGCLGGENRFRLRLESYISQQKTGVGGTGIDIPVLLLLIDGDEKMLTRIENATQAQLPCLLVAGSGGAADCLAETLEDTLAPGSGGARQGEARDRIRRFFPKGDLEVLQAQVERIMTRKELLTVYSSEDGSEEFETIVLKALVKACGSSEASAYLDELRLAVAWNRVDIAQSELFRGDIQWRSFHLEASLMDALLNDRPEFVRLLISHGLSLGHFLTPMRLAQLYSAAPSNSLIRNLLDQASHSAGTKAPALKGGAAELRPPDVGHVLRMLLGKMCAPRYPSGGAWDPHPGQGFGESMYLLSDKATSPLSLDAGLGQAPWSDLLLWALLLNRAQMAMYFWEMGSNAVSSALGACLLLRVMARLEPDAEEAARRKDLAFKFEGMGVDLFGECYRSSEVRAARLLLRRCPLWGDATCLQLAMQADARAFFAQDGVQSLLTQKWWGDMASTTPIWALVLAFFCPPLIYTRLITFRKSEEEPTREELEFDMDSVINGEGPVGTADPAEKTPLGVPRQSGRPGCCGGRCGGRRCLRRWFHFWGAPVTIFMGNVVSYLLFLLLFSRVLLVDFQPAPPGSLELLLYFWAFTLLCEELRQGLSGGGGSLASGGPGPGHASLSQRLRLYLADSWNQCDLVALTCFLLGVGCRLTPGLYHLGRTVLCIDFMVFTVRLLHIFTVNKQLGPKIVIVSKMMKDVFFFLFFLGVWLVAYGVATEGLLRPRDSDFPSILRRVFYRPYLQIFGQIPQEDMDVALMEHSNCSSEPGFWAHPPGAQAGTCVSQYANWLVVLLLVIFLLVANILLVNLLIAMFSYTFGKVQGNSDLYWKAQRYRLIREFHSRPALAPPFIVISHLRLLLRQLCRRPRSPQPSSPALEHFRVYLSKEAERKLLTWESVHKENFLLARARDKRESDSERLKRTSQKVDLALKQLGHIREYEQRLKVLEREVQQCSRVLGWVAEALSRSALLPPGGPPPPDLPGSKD

| Binder | Kd (Peptide-biotin [1]) [nM] | koff (Peptide-biotin [1]) [s⁻¹] | kon (Peptide-biotin [1]) [M⁻¹ s⁻¹] | binding result [2] | Kd (Peptide-biotin [3]) [nM] | koff (Peptide-biotin [3]) [s⁻¹] | kon (Peptide-biotin [3]) [M⁻¹ s⁻¹] | IC50 of dose-dependent inhibition of hypoxia-induced TRPM4 current increase (whole-cell patch clamp) [4] [µg/mL] |
| --- | --- | --- | --- | --- | --- | --- | --- | --- |
| B1 | 4.61 | 0.0015 | 325000 | binds | 1.74 | 0.000543 | 312000 |  |
| B2 | 6.66 | 0.00166 | 249000 |  | 3.16 | 0.000605 | 191000 | 1.23 |
| B3 | 8.62 | 0.00185 | 215000 |  |  |  |  |  |
| B4 | 4.4 | 0.0018 | 409000 |  |  |  |  |  |
| B5 | 4.43 | 0.00201 | 454000 |  |  |  |  |  |
| B6 | 4.32 | 0.00143 | 332000 |  |  |  |  |  |
| B7 | 4.37 | 0.00132 | 303000 |  |  |  |  |  |
| B8 | 2.22 | 0.00135 | 608000 |  |  |  |  |  |
| B9 | 4.36 | 0.00149 | 342000 |  |  |  |  |  |
| B10 | 4.53 | 0.00198 | 438000 |  |  |  |  |  |
| B11 | 4.47 | 0.00136 | 305000 |  |  |  |  |  |
| B12 | 10.8 | 0.00219 | 203000 |  |  |  |  |  |
| B13 | 7 | 0.00177 | 252000 | binds | 3.18 | 0.00062 | 195000 |  |
| B14 | 10.6 | 0.00195 | 184000 | binds | 4.02 | 0.000662 | 165000 |  |
| B15 | 9.96 | 0.00217 | 217000 | binds |  |  |  |  |
| B16 | 9.81 | 0.00321 | 327000 | binds |  |  |  |  |
| B17 | 11.5 | 0.00295 | 256000 | binds |  |  |  |  |
